Laboratory results taken from US20100298542A1.

Key:
[1] = target: soluble human FcRn (complex of FcRn extracellular domain and β2-microglobulin) (human) (UniProt P55899); assay: SPR (Biacore 3000), antibody captured on Protein L or anti-human kappa antibody, human FcRn as analyte, pH 6.0, steady state affinity
[2] = target: soluble human FcRn (complex of FcRn extracellular domain and β2-microglobulin) (human) (UniProt P55899); assay: as above; remark: listed apart in the source
[3] = target: recombinant soluble human IL-6 receptor (SR344) (human) (UniProt P08887); assay: SPR (Biacore T100), antibody captured on anti-IgG (γ-chain specific) F(ab')2, SR344 as analyte, pH 7.4, 37° C.
Sequence of recombinant soluble human IL-6 receptor (SR344) (human) (P08887 20-344): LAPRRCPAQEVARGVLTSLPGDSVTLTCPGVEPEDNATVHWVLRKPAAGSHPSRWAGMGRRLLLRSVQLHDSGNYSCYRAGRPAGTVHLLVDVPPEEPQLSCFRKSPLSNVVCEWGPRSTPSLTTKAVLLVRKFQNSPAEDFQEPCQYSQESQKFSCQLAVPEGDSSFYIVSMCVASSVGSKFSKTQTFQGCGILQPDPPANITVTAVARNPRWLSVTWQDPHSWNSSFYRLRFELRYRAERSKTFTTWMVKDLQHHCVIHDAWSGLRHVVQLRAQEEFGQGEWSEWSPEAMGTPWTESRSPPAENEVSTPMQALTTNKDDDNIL

[4] = target: soluble human FcRn (complex of FcRn extracellular domain and β2-microglobulin) (human) (UniProt P55899); assay: SPR (Biacore 3000), method of Example 6: captured antibody, human FcRn as analyte, pH 6.0, steady state affinity

Kd [1]: 2070 nM
Kd [2]: 1620 nM
Kd [3]: 2.7 nM
koff [3]: 0.0011 s⁻¹
kon [3]: 400000 M⁻¹ s⁻¹
Kd [4]: 1420 nM
Substance: WT-IgG1 (humanized PM-1 antibody, TOCILIZUMAB; humanized anti-human IL-6 receptor IgG1 antibody)
